± gives the uncertainty stated by the source.
Test: amyloid nucleation score (Sup35N fusion, yeast selection) (log enrichment); library NNK2; higher = more nucleation; inactive = no reads after selection
Summary of the method: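 Three technical output replicates were used for random libraries. Psi-negative yeast expressing peptides of 20 random codons fused to Sup35N were induced with 100 μM copper sulfate for 24 hours and grown 7 days at 30°C on medium lacking adenine and uracil, and input and output plasmid inserts were Illumina-sequenced, excluding sequences with under 100 input reads. The nucleation score is the DiMSum log enrichment of output over input reads, centred on the mode score of non-aggregating sequences.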

NICITHPH and NRNLSYHT are within error of each other in amyloid nucleation score: 0.299 ± 0.64 for the first, 0.633 ± 0.8 for the second.

WIAGLCPVDMADL and YVSFMGNSNMFVKLFLRGCI are within error of each other in amyloid nucleation score: 0.644 ± 0.23 for the first, 0.391 ± 0.2 for the second.

Compared with VVSPRVTGNME, YRTPYFIAIQDQRYCLVSLG is lower in amyloid nucleation score: 0.302 ± 0.23 for the first, -0.87 ± 0.45 for the second.

Going from KGQVLWTLGCMSIFVSMTNM to FSIVFGI, the amyloid nucleation score falls from 5.58 ± 0.078 to 1.17 ± 0.15.

DRLVGVTLYSTVYSDYSSSG and IVLLAVI are within error of each other in amyloid nucleation score: -0.768 ± 1.1 for the first, 0.539 ± 0.81 for the second.

Compared with CHGSCSYETSVVCYMWSGKG, YLPRRSGRLRPGMRNNMPFR is lower in amyloid nucleation score: 3.21 ± 0.14 for the first, 0.12 ± 0.28 for the second.

Going from HVFLINLGLNCGQRYRYRSL to YHYNNNRWVTGHFQWIWSLY, the amyloid nucleation score rises from 6.044 ± 0.047 to 6.453 ± 0.029.

YVLRYYALVLYFLICWYYAY and TGCNFHGRRFRCGYNGLGNP are within error of each other in amyloid nucleation score: 0.215 ± 0.57 for the first, -0.59 ± 0.37 for the second.

Compared with LQYINRGISRHVVKYSRSLS, SDTVYLIFFSLAYNYVKRVT is lower in amyloid nucleation score: -0.733 ± 0.41 for the first, -1.74 ± 0.41 for the second.

Going from RKISMTN to FMTSWTVYSSRAYLHENVGT, the amyloid nucleation score rises from -0.573 ± 0.3 to 1.08 ± 0.37.

Compared with HLNNCALGTDLILNALDVS, SFLWLSMFVESAQVVNLQLY is higher in amyloid nucleation score: -0.426 ± 0.54 for the first, 5.485 ± 0.038 for the second.

CGMKTRQYCTMSRYVGRYVR and SLFCVPSSRKVLFLGRTVVV are within error of each other in amyloid nucleation score: 0.231 ± 0.24 for the first, 0.123 ± 1 for the second.

Compared with PMKLTILDTNGCNINRAPFS, ARKCDLFYTFFCTNIFSSVG is higher in amyloid nucleation score: -1.02 ± 1.1 for the first, 4.798 ± 0.039 for the second.

DISVRTMFVS and LLRMKTFDHWYRAREGFAYC are within error of each other in amyloid nucleation score: -0.392 ± 0.48 for the first, -0.512 ± 0.3 for the second.

First: FFTAMDASRSRLKCSYAVQT
Second: NMCWFKPG
The amyloid nucleation score of the first is higher: 3.28 ± 0.13 for the first, -0.329 ± 0.17 for the second.

First: TSSMTNERDNLILV
Second: KNKWRSMV
The amyloid nucleation score of the first is lower: -0.187 ± 0.42 for the first, 0.953 ± 0.18 for the second.

VIVLIVLPEYAGVYSHWCWD and YQHDT are within error of each other in amyloid nucleation score: 0.772 ± 0.81 for the first, 0.871 ± 0.27 for the second.

Compared with FCCFRVYVDMENLSNSALTL, FRDCYCRVVAPYDLHFVCTW is lower in amyloid nucleation score: 7.557 ± 0.033 for the first, 0.573 ± 0.15 for the second.

MITDGGASVGLNYRYS and HKGCIIVWKTKRGLCRSARC are within error of each other in amyloid nucleation score: -0.524 ± 0.33 for the first, -0.384 ± 0.79 for the second.

VLISVIWLRGRKLSVGWKKD and CSRIHMRIARSSLF are within error of each other in amyloid nucleation score: 0.593 ± 0.53 for the first, 1.18 ± 0.39 for the second.

ASMCIGRWIFGEYYSFNMFI and LVLSGGRV are within error of each other in amyloid nucleation score: 0.775 ± 0.38 for the first, 0.184 ± 0.42 for the second.

RWIVRDSFESWFMVLD and ISSHVSCKSAFEAS are within error of each other in amyloid nucleation score: -0.267 ± 0.35 for the first, 0.395 ± 0.64 for the second.

First: CYYFLFNS
Second: SYPVDEMMRFCLFVMDTGQL
The amyloid nucleation score of the first is higher: 2.31 ± 0.062 for the first, 0.106 ± 0.54 for the second.

First: IINSDLMCLVNLFVNDSMRG
Second: SGCASSSDTFDRSLCCEYTL
The amyloid nucleation score of the first is higher: 8.093 ± 0.059 for the first, 0.295 ± 1 for the second.

First: FNHYQ
Second: CMRVVDGCFYFLDWSGVTDF
The amyloid nucleation score of the first is higher: 0.419 ± 0.36 for the first, -1.55 ± 1.1 for the second.

Going from YISVCSYCH to LFSCFKTEWFCITRMDGLIM, the amyloid nucleation score rises from 4.9 ± 0.056 to 5.731 ± 0.036.

Compared with FKIVALTTVNIVLRDSWCNP, YQGNIRVGISRSRK is lower in amyloid nucleation score: 6.199 ± 0.061 for the first, 0.36 ± 0.41 for the second.

First: GTCFQTINMGGCLIGGPG
Second: GGCVYSVTLFFTWTEWGKAK
The amyloid nucleation score of the first is higher: 2.69 ± 0.14 for the first, -0.516 ± 0.79 for the second.

KRLVEAVKFWWQVRNGLKVR and AGWRLVTQDRLSLLNQTDVF are within error of each other in amyloid nucleation score: 0.518 ± 0.29 for the first, 1.05 ± 0.36 for the second.

ICSTVSVIKT and RLRKFESLLICDRISIIVRY are within error of each other in amyloid nucleation score: -0.249 ± 0.64 for the first, 0.621 ± 0.56 for the second.

In the case of IDKICFKTDLIVFCRGLNPC, the amyloid nucleation score is reported as 1.9 ± 0.19.

With NHVARMFLKQRFFSNMS the amyloid nucleation score was “inactive”.
In the case of FLLECSWFCVYTIGFYYRNI, the amyloid nucleation score is reported as “inactive”.
For WAFNPTELLVDAQKSRGRIW, the amyloid nucleation score was “inactive”.
With FCLFW the amyloid nucleation score was “inactive”.
With FDYFF the amyloid nucleation score was “inactive”.
With VWKVVKIRAL the amyloid nucleation score was “inactive”.
With NSLLNFVFSVYVKACIIPYT the amyloid nucleation score was “inactive”.
With GFRFLLKLLFGFKKV the amyloid nucleation score was “inactive”.
For FIRYVCHNVWDICYHLEMLL, the amyloid nucleation score was “inactive”.
With MSTMINSPPSSG the amyloid nucleation score was “inactive”.

From the supplement of paper PMC12042874
